Values joined by “and” are separate entries in the source; they are usually repeats but may differ in a detail not shown here. Identical values can stand only once. Like-named read-outs stand apart in the source and are kept apart here.
Tests used:
BT-474 cells = assay: Crystal Violet cytotoxicity assay (Example 4), BT-474; type: cell-based, human
Experimental: Test reagents were serial diluted 1:3 in 2 mL deep-well dilution plates, starting at 200 nM (10 dilutions total). […] Medium was then discarded. […] Plates were read at 570 nm. Data was analyzed using GraphPad Prism 6.

HL-60 cells = assay: Bystander killing assay, Nuclight Red HL-60; type: cell-based, human
Experimental: The day before study commencement, Nuclight™ Green (NLG) IGROV1 cells were seeded at 5,000 cells/well into 96-well round bottom plates, followed by centrifugation at 1,000 rpm for 3 min at room temperature to ensure formation of a cell pellet. The plate was placed in the vessel of an Incucyte Zoom® (EssenBio science) and incubated at 37° C./5% CO2 overnight. The program was set to collect images of cell growth, and to determine total numbers of nuclear green-stained and nuclear red-stained cells as well as phase-confluency of the cells every two hours. […] 50 μL of cytotoxin solution was added to the NLG-IGROV1 cells and incubated for 30 min. During the incubation period, Nuclight™ Red (NLR) HL-60 (FR^neg) cells were diluted to 2×10^5, 1×10^5 or 5×10^4 cell/mL with fresh media. 50 μL of the NLR-HL60 cell suspension or medium alone was added to the NLG-IGROV1 wells, followed by centrifugation at 1,000 rpm for 3 min at room temperature to ensure re-formation of the cell pellet. The plate was placed back into the vessel of Incucyte Zoom (EssenBio science) and incubated at 37° C./5% CO2 for up to 5 days. Relative cell growth of NLG-IGROV1 was determined by comparison to no ADC or free drug alone added samples using green cell counts. Relative cell growth of HL60 was done similarly, except that red cell count was determined. Determination of IC50 values for both NLG-IGROV1 and NLR-HL-60 was determined using Prism (GraphPad).
In order to assess bystander killing activity, an assay was set up using two labeled cell lines. […] Cytotoxicity was monitored by an Incucyte Zoom® cell imager.

[1] = test system: cancer associated fibroblasts (α-smooth muscle actin) in H2110 xenograft; conditions: 5 mg/kg single dose
Experimental: Prior to staining, slides were dewaxed and antigen was retreived in a Lab Vision™ PT Module (Thermo Scientific), in citrate buffer (pH 6.0) pre-warmed to 85° C., using the following program: warm to 97° C.; incubate at 97° C. for 30 min; and cool to 60° C. Slides were then transferred to double distilled water at room temperature for 5 min. Staining was performed in a Lab Vision™ Autostainer 360 (Thermo Scientific). Briefly, slides were washed twice in 1×Tris-buffered saline/Tween-20 (TBST) for 6 min/wash. Tissue sections were then incubated in blocking buffer (300 μL) (10% goat serum (Jackson Immunoresearch Laboratory Inc., Cat No. 005-000-121) diluted in 3% bovine serum albumin (BSA)-phosphate buffered saline (PBS)) for 1 hour, incubated in conjugated antibody (200 μL) (Table 38) for 1 hour, and washed five times in 1×TBST for 6 min/wash. Slides were counterstained with DAPI in mounting media, and coverslipped slides were allowed to harden for 30 min. Slides were processed on a Panoramic MIDI scanner (3[sequence]), and IHC images were analyzed using Halo software (Indica Labs).
Collected tumor samples were processed on slides, and cancer associated fibroblast (CAF) expression was analyzed by IHC.

CaOV3 cells = assay: Crystal Violet cytotoxicity assay (Example 1), CaOV3; type: cell-based, human
Experimental: Typically, test reagents were serial diluted 1:4 in 2 mL deep-well dilution plates, starting at 1 μM (10 dilutions total). 100 μL of diluted samples were added to the cell plates (starting concentration of test samples at 500 nM). […] Medium was discarded, plates were washed once with 200 μL DPBS, stained with 50 μL of 0.2% Crystal Violet solution at room temperature for 15 min, and then washed extensively with tap water. Plates were air-dried, and Crystal Violet was dissolved with 200 μL of 1% SDS solution. Plates were read at 570 nm. […] Assays were performed using a seeding density of 1,000 cells per well and compound exposure was for a total of 5 days. When shorter-term exposure was desired, medium containing cytotoxic agents was removed after 4 hours and replaced with fresh growth medium prior to 5-day incubation. For OVCAR3, CaOV3, and NCI-H2110, cells were seeded at 3,000 cells/well and incubated for 5 days with ADC.
Screening of selected ADCs was also performed in CaOV3 (human ovarian carcinoma, FR^med(++), NCI-H2110 (human non-small cell lung carcinoma, FR^med(++), and/or OVCAR3 (human ovarian carcinoma, FR^med(++)) cells. The results of this screening are provided in Table 16.

[2] = Maximum tolerated dose of MORAb-202 in CD-1 mice; type: in vivo, mouse
Experimental: Body weight was measured prior to dose on the dosing day, 24 hours post dose, and three times a week thereafter. […] Two weeks after dosing, the terminal body weight was measured and recorded. Euthanized mice at the end of the study (and if any mouse euthanized or found dead during the study) were processed for necropsy. Organs were examined for signs of tissue damage.

[3] = test system: LXFA-737 NSCLC patient-derived xenograft; assay: NSCLC PDx model LXFA-737; type: in vivo, mouse; conditions: for Tumor Growth Inhibition: vehicle = 100
Text: Tumor implantation: NSCLC tumor fragments were obtained from LXFA-737 tumor xenografts serially passaged in nude mice. After removal from donor mice, tumors were cut into fragments (3-4 mm edge length) and placed in phosphate-buffered saline (PBS) containing 10% penicillin/streptomycin. Recipient animals were anesthetized by inhalation of isoflurane and received unilateral or bilateral tumor implants subcutaneously in the flank. Tumor xenografts were implanted with one or two tumors per mouse at a take rate <65%. In the case of a bilateral take, one of these tumors was explanted prior to randomization. Animals and tumor implants were monitored daily until solid tumor growth was detectable in a sufficient number of animals. At randomization, the volume of growing tumors was determined. […] Animals not used for experiments were euthanized.
Body weight was measured prior to dose on each dosing day, and two times per week during the study. At the end of the study, the terminal body weight was measured and recorded.

[4] = test system: Endo-10590 endometrial cancer patient-derived xenograft; assay: Endometrial cancer PDx model Endo-10590
Experimental: Tumor fragments were implanted subcutaneously into the left flank of 40 NMRI nu/nu female mice, and tumor volume was monitored. Mice with a tumor volume of 100-160 mm^3 were randomized into one of four groups (Groups A-D, Table 39). […] Each group consisted of 8 animals. The day of randomization was designated as Day 0 of the experiment.
Tumor growth was evaluated by the measurement of two perpendicular diameters twice weekly, and tumor volume (TV), relative tumor volume (RTV) and treated/control (T/C) values were calculated. Body weight was also evaluated twice weekly as a parameter for toxicity, with the calculation of the body weight per group and body weight changes (BWC) relative to the start of treatment. Animals were sacrificed when the individual tumor volume exceeded 1 cm^3, or at the end of the study.

[5] = 5 mg/kg single dose i.v., Day 21, n = 6
[6] = 5 mg/kg single dose i.v., Day 32, n = 6
[7] = 5 mg/kg single dose i.v., Day 74, n = 6

## MORAb-003-maleimido-PEG2-Val-Cit-pAB-eribulin [MORAb-202]
BT-474 cells
  cytotoxicity on BT-474 cells, in words: little killing
HL-60 cells; HL-60 (FR-negative) cells alone, read-out: EC50, HL-60
  EC50: 39.7 nM
HL-60 cells; HL-60 co-cultured with IGROV1, read-out: EC50, HL-60 (co-culture with IGROV-1)
  EC50: 0.24 nM
[1]; Day 3 and Day 5
  CAF network structure (anti-α-SMA-FITC staining), in words: prominent
[1]; by Day 7
  CAF network structure (anti-α-SMA-FITC staining), in words: significantly diminished
CaOV3 cells; CaOV3 cells, mean of replicate experiments, where performed
  IC50: 3.7 nM
CaOV3 cells; Example 1
  cytotoxicity on CaOV3 cells, in words: potent cytotoxicity
[2]; 10 mg/kg single bolus i.v., CD-1 mice, day 0 post Rx
  Body weight of individual mice: 22.60 g and 23.50 g and 21.80 g
[2]; 10 mg/kg single bolus i.v., CD-1 mice, day 0 post injections
  Body weight, group mean: 22.6 g
[2]; 10 mg/kg single bolus i.v., CD-1 mice, day 1 post Rx
  Body weight of individual mice: 22.80 g and 23.80 g
[2]; 10 mg/kg single bolus i.v., CD-1 mice, day 1 post injections
  Body weight, group mean: 23.2 g
[2]; 10 mg/kg single bolus i.v., CD-1 mice, day 2 post Rx
  Body weight of individual mice: 23.30 g and 24.00 g and 22.90 g
[2]; 10 mg/kg single bolus i.v., CD-1 mice, day 2 post injections
  Body weight, group mean: 25.4 g
[2]; 10 mg/kg single bolus i.v., CD-1 mice, day 4 post Rx
  Body weight of individual mice: 23.30 g (2×) and 23.90 g
[2]; 10 mg/kg single bolus i.v., CD-1 mice, day 4 post injections
  Body weight, group mean: 23.5 g
[2]; 10 mg/kg single bolus i.v., CD-1 mice, day 7 post Rx
  Body weight of individual mice: 24.80 g and 25.20 g and 24.90 g
[2]; 10 mg/kg single bolus i.v., CD-1 mice, day 7 post injections
  Body weight, group mean: 25.0 g
[2]; 10 mg/kg single bolus i.v., CD-1 mice, day 9 post Rx
  Body weight of individual mice: 24.90 g and 25.30 g and 25.00 g
[2]; 10 mg/kg single bolus i.v., CD-1 mice, day 9 post injections
  Body weight, group mean: 25.1 g
[2]; 10 mg/kg single bolus i.v., CD-1 mice, day 11 post Rx
  Body weight of individual mice: 24.30 g (2×) and 25.10 g
[2]; 10 mg/kg single bolus i.v., CD-1 mice, day 11 post injections
  Body weight, group mean: 24.6 g
[2]; 10 mg/kg single bolus i.v., CD-1 mice, day 14 post Rx
  Body weight of individual mice: 25.80 g and 25.60 g and 25.70 g
[2]; 10 mg/kg single bolus i.v., CD-1 mice, day 14 post injections
  Body weight, group mean: 25.7 g
[2]; 20 mg/kg single bolus i.v., CD-1 mice, day 0 post Rx
  Body weight of individual mice: 27.40 g and 26.20 g and 21.00 g
[2]; 20 mg/kg single bolus i.v., CD-1 mice, day 0 post injections
  Body weight, group mean: 24.9 g
[2]; 20 mg/kg single bolus i.v., CD-1 mice, day 1 post Rx
  Body weight of individual mice: 28.80 g and 27.50 g and 21.40 g
[2]; 20 mg/kg single bolus i.v., CD-1 mice, day 1 post injections
  Body weight, group mean: 25.9 g
[2]; 20 mg/kg single bolus i.v., CD-1 mice, day 2 post Rx
  Body weight of individual mice: 29.30 g and 29.00 g and 22.10 g
[2]; 20 mg/kg single bolus i.v., CD-1 mice, day 2 post injections
  Body weight, group mean: 26.8 g
[2]; 20 mg/kg single bolus i.v., CD-1 mice, day 4 post Rx
  Body weight of individual mice: 30.20 g and 31.00 g
[2]; 20 mg/kg single bolus i.v., CD-1 mice, day 4 post injections
  Body weight, group mean: 28.1 g
[2]; 20 mg/kg single bolus i.v., CD-1 mice, day 7 post Rx
  Body weight of individual mice: 29.60 g and 32.00 g and 24.00 g
[2]; 20 mg/kg single bolus i.v., CD-1 mice, day 7 post injections
  Body weight, group mean: 28.5 g
[2]; 20 mg/kg single bolus i.v., CD-1 mice, day 9 post Rx
  Body weight of individual mice: 30.80 g and 31.70 g and 23.40 g
[2]; 20 mg/kg single bolus i.v., CD-1 mice, day 9 post injections
  Body weight, group mean: 28.6 g
[2]; 20 mg/kg single bolus i.v., CD-1 mice, day 11 post Rx
  Body weight of individual mice: 31.00 g and 32.40 g and 23.80 g
[2]; 20 mg/kg single bolus i.v., CD-1 mice, day 11 post injections
  Body weight, group mean: 29.1 g
[2]; 20 mg/kg single bolus i.v., CD-1 mice, day 14 post Rx
  Body weight of individual mice: 33.20 g and 32.40 g and 24.10 g
[2]; 20 mg/kg single bolus i.v., CD-1 mice, day 14 post injections
  Body weight, group mean: 29.9 g
[2]; 40 mg/kg single bolus i.v., CD-1 mice, day 0 post Rx
  Body weight of individual mice: 23.80 g and 23.30 g and 21.70 g
[2]; 40 mg/kg single bolus i.v., CD-1 mice, day 0 post injections
  Body weight, group mean: 22.9 g
[2]; 40 mg/kg single bolus i.v., CD-1 mice, day 1 post Rx
  Body weight of individual mice: 23.60 g and 23.50 g and 21.60 g
[2]; 40 mg/kg single bolus i.v., CD-1 mice, day 1 post injections
  Body weight, group mean: 22.9 g
[2]; 40 mg/kg single bolus i.v., CD-1 mice, day 2 post Rx
  Body weight of individual mice: 23.60 g and 24.60 g and 21.80 g
[2]; 40 mg/kg single bolus i.v., CD-1 mice, day 2 post injections
  Body weight, group mean: 23.3 g
[2]; 40 mg/kg single bolus i.v., CD-1 mice, day 4 post Rx
  Body weight of individual mice: 24.40 g and 24.10 g and 22.70 g
[2]; 40 mg/kg single bolus i.v., CD-1 mice, day 4 post injections
  Body weight, group mean: 23.7 g
[2]; 40 mg/kg single bolus i.v., CD-1 mice, day 7 post Rx
  Body weight of individual mice: 25.10 g and 25.50 g and 23.40 g
[2]; 40 mg/kg single bolus i.v., CD-1 mice, day 7 post injections
  Body weight, group mean: 24.7 g
[2]; 40 mg/kg single bolus i.v., CD-1 mice, day 9 post Rx
  Body weight of individual mice: 25.80 g and 25.20 g and 23.70 g
[2]; 40 mg/kg single bolus i.v., CD-1 mice, day 9 post injections
  Body weight, group mean: 24.9 g
[2]; 40 mg/kg single bolus i.v., CD-1 mice, day 11 post Rx
  Body weight of individual mice: 25.30 g and 25.00 g and 23.80 g
[2]; 40 mg/kg single bolus i.v., CD-1 mice, day 11 post injections
  Body weight, group mean: 24.7 g
[2]; 40 mg/kg single bolus i.v., CD-1 mice, day 14 post Rx
  Body weight of individual mice: 25.70 g and 25.30 g and 26.30 g
[2]; 40 mg/kg single bolus i.v., CD-1 mice, day 14 post injections
  Body weight, group mean: 25.8 g
[2]; 80 mg/kg single bolus i.v., CD-1 mice, day 0 post Rx
  Body weight of individual mice: 21.80 g and 26.50 g and 25.80 g
[2]; 80 mg/kg single bolus i.v., CD-1 mice, day 0 post injections
  Body weight, group mean: 24.7 g
[2]; 80 mg/kg single bolus i.v., CD-1 mice, day 1 post Rx
  Body weight of individual mice: 23.10 g and 27.80 g (2×)
[2]; 80 mg/kg single bolus i.v., CD-1 mice, day 1 post injections
  Body weight, group mean: 26.2 g
[2]; 80 mg/kg single bolus i.v., CD-1 mice, day 2 post Rx
  Body weight of individual mice: 23.30 g and 28.30 g (2×)
[2]; 80 mg/kg single bolus i.v., CD-1 mice, day 2 post injections
  Body weight, group mean: 26.6 g
[2]; 80 mg/kg single bolus i.v., CD-1 mice, day 4 post Rx
  Body weight of individual mice: 23.50 g and 29.50 g and 28.60 g
[2]; 80 mg/kg single bolus i.v., CD-1 mice, day 4 post injections
  Body weight, group mean: 27.2 g
[2]; 80 mg/kg single bolus i.v., CD-1 mice, day 7 post Rx
  Body weight of individual mice: 23.30 g and 30.40 g and 30.10 g
[2]; 80 mg/kg single bolus i.v., CD-1 mice, day 7 post injections
  Body weight, group mean: 27.9 g
[2]; 80 mg/kg single bolus i.v., CD-1 mice, day 9 post Rx
  Body weight of individual mice: 23.60 g and 31.00 g and 30.20 g
[2]; 80 mg/kg single bolus i.v., CD-1 mice, day 9 post injections
  Body weight, group mean: 28.3 g
[2]; 80 mg/kg single bolus i.v., CD-1 mice, day 11 post Rx
  Body weight of individual mice: 23.10 g and 29.10 g and 29.40 g
[2]; 80 mg/kg single bolus i.v., CD-1 mice, day 11 post injections
  Body weight, group mean: 27.2 g
[2]; 80 mg/kg single bolus i.v., CD-1 mice, day 14 post Rx
  Body weight of individual mice: 21.70 g and 28.40 g and 28.90 g
[2]; 80 mg/kg single bolus i.v., CD-1 mice, day 14 post injections
  Body weight, group mean: 26.3 g
[2]; doses up to 80 mg/kg via bolus intravenous administration
  toxicity, in words: no toxicity
[2]; single bolus intravenous dose, CD-1 mice
  maximum tolerated dose (MTD): above 80 mg/kg
[2]; single i.v. dose 10, 20, 40 or 80 mg/kg
  body weight loss compared with PBS control, in words: No significant body weight loss
[3]; 5 mg/kg single dose
  body weight loss versus vehicle, in words: no significant body weight loss
[3]; [5]
  Tumor Volume: 22.9 mm^3
  Tumor Growth Inhibition: (2.3) %
[3]; [6]
  Tumor Volume: 4.7 mm^3
  Tumor Growth Inhibition: (0.3) %
[3]; [7]
  Tumor Volume: 418.3 mm^3
  tumor-free mice: (4/6 tumor-free)
[3]; 5 mg/kg single dose, six mice
  mice considered tumor-free at Day 32: Five of the six
  mice that remained tumor-free through Day 74: four
[3]; 5 mg/kg single i.v. dose
  anti-tumor activity, in words: significant tumor regression
[4]; MORAb-202 5 mg/kg or eribulin 3.2 mg/kg
  tumor re-growth during the study, in words: no significant tumor re-growth
[4]; MORAb-202 5 mg/kg or eribulin 3.2 mg/kg, single i.v. dose
  anti-tumor activity, in words: significant anti-tumor activity
[4]; first week post-treatment
  effect on body weight, in words: no body weight loss
